Substrate: O=C(O)[C@@H](CO)OP(=O)(O)O
Test: purified protein
Assay type: biochemical, Synechococcus elongatus
Settings: 100 mM HEPES pH 8.0, 100 mM KCl, 1.0 mM MgCl2, 30°C, dehydration direction

B1: SeEN (Synechococcus elongatus enolase) (Synechococcus elongatus PCC 7942 = FACHB-805) (protein)
chain: MPDDYGTQIAEITAREILDSRGRPTVEAEVHLEDGSVGLAQVPSGASTGTFEAHELRDDDPSRYGGKGVQKAVENVSAIEDALIGLSALDQEGLDKAMIALDGTPNKKNLGANAILAVSLATAHAAATSLNLPLYRYLGGPLANVLPVPMMNVINGGAHADNNVDFQEFMIMPVGAPSFKEALRWGAEVFHALAKVLKDKGLATGVGDEGGFAPNLGSNKEALELLLTAIEAAGYKPGEQVALAMDVASSEFYKNGLYTCDGVSHEPAGMIGILADLVSQYPIVSIEDGLQEDDWSNWKTLTQQLGSTVQLVGDDLFVTNPDRLQSGIEQGVGNAVLIKLNQIGTLTETLRTIDLATRSGYRSVISHRSGETEDTTIADLAVATRAGQIKTGSLSRSERIAKYNRLLRIEAALGENALYAGAIGLGPKGR
notes: full length, synthetic codon-optimized gene in pET-42a(+), C-terminal … (8xHis) tag kept, E. coli Arctic Express (DE3); mainly monomer in gel filtration, dimer in PEP crystal, octamer predicted
B1 was tested. Which Km did it give?
The Km was 61 ± 4 µM.

And the kcat?
The kcat was 7.4 ± 0.1 s⁻¹.

What about the kcat/Km of the same protein?
The kcat/Km was 120000 M⁻¹ s⁻¹.

— paper PMC8996150, “The structure of Synechococcus elongatus enolase reveals key aspects of phosphoenolpyruvate binding” (Acta Crystallographica. Section F, Structural Biology …, 2022)
